Laboratory results published in article PMC7794309.

Conditions: glycan lost

Row | Substance | other: support of viral entry, other: percent increase over WT | other: viral replication
1 | ACE2: N53Q | no change | –
2 | ACE2: N690Q | no change | –
3 | ACE2: N103Q | no change | –
4 | ACE2: N432Q | no change | –
5 | ACE2: N546Q | 68% | no change
6 | ACE2: N90Q | 60% | increases
7 | ACE2: N322Q | no change | –
